± gives the standard deviation of the averaged measurements.
These sequences were tested on Saccharomyces cerevisiae (assay: protein stability index of tFT-peptide fusion (C-terminal peptide) (PSI (0-1 scale)); higher = more stable (slower turnover)). Details: genetic background: wild type; temperature: 30 C.
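Also: PSI is a weighted mean of sequencing reads over stability bins, variants kept only with over 10 reads, mCherry proximal and sfGFP distal, peptide attached via GGGS linker.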

Sequence	protein stability index
SWGACVDYLGWS	0.754 ± 0.03
GCGAGEVWGVGG	0.674 ± 0.014
FRDVRFSSRVPF	0.786 ± 0.07
ICSFVFTTLFGG	0.6442 ± 0.0026
GPGTSSVARPVS	0.735 ± 0.07
SLLRSPSLPQSN	0.634 ± 0.095
VFSARVVGGVLF	0.681 ± 0.011
EGSPIVNSLALD	0.668 ± 0.017
RALSPFPSILPS	0.719 ± 0.068
GFWWGCGGFCFC	0.685 ± 0.023
PPPRPDPPSLLD	0.545 ± 0.0085
RIRPPPAPPPPP	0.569 ± 0.019
INTVGRCCGLVE	0.681 ± 0.043
WVCRGSSLKSSI	0.677 ± 0.058
LLSLVYSPLSPL	0.664 ± 0.035
VITCGLVLRSVR	0.652 ± 0.031
ELLTVQLHKAAR	0.706 ± 0.0076
FFYYPSFLPSPL	0.685 ± 0.011
CDGGCSWGGLMG	0.795 ± 0.071
TVLTDKKGRVRS	0.71 ± 0.0093
EAPRTPPSVPVN	0.7866 ± 0.0051
KKLSTYSVIEKS	0.601 ± 0.042
LSVEAGRGELLW	0.69 ± 0.067
ATNCERLHNPHL	0.727 ± 0.0034
WTFEYRNHKMKK	0.7149 ± 0.0071
LSVLHATFGRCD	0.645 ± 0.017

Sequence	protein stability index
PLRAHLYRPSVP	0.69 ± 0.03
KKGIKEYYKVQK	0.775 ± 0.16
MNLAGRRAVEEW	0.659 ± 0.024
NKKKKQRINIRG	0.749 ± 0.068
KTKNIKTKDKPE	0.673 ± 0.024
VEQSYKESVNLD	0.682 ± 0.017
VAVWGAIRHASN	0.718 ± 0.033
VRWGVVGVQGNW	0.678 ± 0.021
SFQCTCLSPCTG	0.652 ± 0.07
GVAWGCVSRVFG	0.68 ± 0.045
CKQIESRLLEGQ	0.64 ± 0.024
SRTDGLIYTALI	0.676 ± 0.021
SCCSLCKAVRNL	0.718 ± 0.054
GAVQGVALRGGS	0.744 ± 0.1
WGRCGSVGRGGA	0.749 ± 0.024
RGSQRVVVSLGW	0.726 ± 0.0073
STVPGRPKLTLV	0.578 ± 0.032
PPPSSILSPSTS	0.659 ± 0.046
HPTTHYLPRPAH	0.6779 ± 0.0022
LLRPPSAPSTLL	0.706 ± 0.084
HRVRVRVYTCGF	0.634 ± 0.05
RSRPPPPLLPSV	0.8206 ± 0.0072
PPPTVRLSCVPP	0.794 ± 0.031
QKKKKEKQKKKG	0.692 ± 0.023
PHDPHNTATNQG	0.721 ± 0.016
DQVGWVAGVDAR	0.707 ± 0.048

Sequence	protein stability index
LSYCLLALFFPL	0.501 ± 0.009
GCGLVGGRWFRW	0.67 ± 0.034
SVPFPTEYLVVD	0.681 ± 0.075
NKKKKKKSTKRN	0.691 ± 0.044
KSPSTRATTHTY	0.678 ± 0.028
FSLHTSLLPSVP	0.787 ± 0.14
VWTPWSTKDCLG	0.721 ± 0.054
PPPPPLPTPPPS	0.653 ± 0.036
LTILEPYFLLGP	0.732 ± 0.21
PPPTPRIPRPLR	0.717 ± 0.02
PLSPPPPPPLPA	0.71 ± 0.011
CGEALGVSWMTL	0.684 ± 0.0038
RGAVEAGGWRIG	0.682 ± 0.0087
ALSLARVSSPLF	0.707 ± 0.06
NIRETVILRIMQ	0.606 ± 0.048
RTLYAGVVGGNG	0.734 ± 0.086
GIGSHSSSNVNP	0.791 ± 0.094
VSGASHLCQYIK	0.724 ± 0.072
PHLTTPATPVLL	0.716 ± 0.023
KLSIKNLFDLLY	0.691 ± 0.033
WGSSGCLFGTVG	0.769 ± 0.12
ALPPLLLLPASP	0.691 ± 0.0093
KKKKKQKDTKHR	0.682 ± 0.018
GYVVVGGGGGLG	0.717 ± 0.039
LRTHPPGPLPLA	0.654 ± 0.12
MTMGNWLRLKRR	0.62 ± 0.024

Sequence	protein stability index
SHSHMRRLKMYR	0.717 ± 0.089
RFAPCSPPADPS	0.68 ± 0.019
PSDGCSPSSTGN	0.696 ± 0.076
MPPRNAENRSLP	0.6793 ± 0.003
VLHLVGFDADVV	0.725 ± 0.021
CLHLDQAACVGS	0.695 ± 0.1
GSGLWAGLWRAW	0.727 ± 0.078
VRLRGEGCGWGG	0.7158 ± 0.0022
APPPFLCSPFVA	0.698 ± 0.0092
FRMLSRMKEILD	0.634 ± 0.052
PLSPSPPPAFPA	0.794 ± 0.039
YLQPSGSRPGAK	0.715 ± 0.014
VPDRIFRSASQT	0.714 ± 0.0049
AVLSVGHWGSGL	0.69 ± 0.028
KETNIKKRRARG	0.6458 ± 0.0021
TRAKVQSRGSLS	0.708 ± 0.039
FSVPRFVSISGI	0.6 ± 0.034
PLGDLGPRLRKP	0.669 ± 0.039
KKKKKKKKKKTR	0.6407 ± 0.0016
SPLLVLTPLFPP	0.651 ± 0.074
LSNFLFYGLCPG	0.651 ± 0.081
PYLLDTPPPSTP	0.769 ± 0.043
KKKKKKVRYIRI	0.671 ± 0.046
